# Legend:
# Test in all cases: holdup assay
# Set-up in all cases: key: below the threshold = too weak to quantify, mostly under pKd 3.1 to 4
# Conditions in all cases: plain residues with an end cap or a label only (N-terminal biotin on a linker: ado-ado)
# LNX1_2, Q8TBB1 = target: LNX1_2, Q8TBB1
# PDZRN3_1, Q9UPQ7 = target: T1, PDZRN3_1, Q9UPQ7
# T1 sequence (Q9UPQ7 244-349, limits assumed, looked up): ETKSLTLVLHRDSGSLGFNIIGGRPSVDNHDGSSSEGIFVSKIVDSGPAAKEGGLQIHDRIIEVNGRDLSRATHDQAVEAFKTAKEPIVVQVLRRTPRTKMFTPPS
# MAGI2_4, Q86UL8 = target: MAGI2_4, Q86UL8
# SNTG2, Q9NY99 = target: T2, SNTG2, Q9NY99
# T2 sequence (Q9NY99 68-166, limits assumed, looked up): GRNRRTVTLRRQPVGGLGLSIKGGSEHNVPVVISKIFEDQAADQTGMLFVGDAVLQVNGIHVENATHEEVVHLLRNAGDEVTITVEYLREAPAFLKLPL
# APBA2_2, Q99767 = target: T3, APBA2_2, Q99767
# T3 sequence (Q99767 654-744, limits assumed, looked up): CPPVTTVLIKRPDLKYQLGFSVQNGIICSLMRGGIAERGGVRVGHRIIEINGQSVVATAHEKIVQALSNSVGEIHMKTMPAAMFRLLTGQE
# FRMPD2_1, Q68DX3 = target: FRMPD2_1, Q68DX3
# LNX2_3, Q8N448 = target: T4, LNX2_3, Q8N448
# T4 sequence (Q8N448 463-564, limits assumed, looked up): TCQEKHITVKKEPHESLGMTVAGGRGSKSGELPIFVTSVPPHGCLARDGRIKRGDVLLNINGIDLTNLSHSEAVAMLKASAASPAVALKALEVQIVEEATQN
# LIN7B, Q9HAP6 = target: T5, LIN7B, Q9HAP6
# T5 sequence (Q9HAP6 88-185, limits assumed, looked up): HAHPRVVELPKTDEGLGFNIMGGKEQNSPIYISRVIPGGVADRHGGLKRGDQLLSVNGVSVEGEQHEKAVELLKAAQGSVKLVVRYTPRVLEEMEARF
# DLG4_3, P78352 = target: DLG4_3, P78352
# HTRA4, P83105 = target: T6, HTRA4, P83105
# T6 sequence (P83105 378-476, limits assumed, looked up): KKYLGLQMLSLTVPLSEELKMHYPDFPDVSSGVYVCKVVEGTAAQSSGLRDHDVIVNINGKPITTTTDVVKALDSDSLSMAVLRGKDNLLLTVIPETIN
# SCRIB_2, Q14160 = target: SCRIB_2, Q14160
# GRIP1_4, Q9Y3R0 = target: T7, GRIP1_4, Q9Y3R0
# T7 sequence (Q9Y3R0 467-571, limits assumed, looked up): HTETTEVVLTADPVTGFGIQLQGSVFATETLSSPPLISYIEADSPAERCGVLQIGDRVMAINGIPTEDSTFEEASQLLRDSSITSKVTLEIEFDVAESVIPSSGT
# TJP1_3, Q07157 = target: TJP1_3, Q07157
# LNX1_3, Q8TBB1 = target: LNX1_3, Q8TBB1
# NHERF3_4, Q5T2W1 = target: T8, NHERF3_4, Q5T2W1
# T8 sequence (Q5T2W1 373-468, limits assumed, looked up): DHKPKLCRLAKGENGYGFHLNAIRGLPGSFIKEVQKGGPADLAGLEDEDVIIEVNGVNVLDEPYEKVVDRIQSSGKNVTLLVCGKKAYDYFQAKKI
# DLG1_2, Q12959 = target: DLG1_2, Q12959
# PDZD2_2, O15018 = target: T9, PDZD2_2, O15018
# T9 sequence (O15018 329-429, limits assumed, looked up): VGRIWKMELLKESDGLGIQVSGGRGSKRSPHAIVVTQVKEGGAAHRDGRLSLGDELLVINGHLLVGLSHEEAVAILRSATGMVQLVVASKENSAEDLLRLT
# LIN7C, Q9NUP9 = target: T10, LIN7C, Q9NUP9
# T10 sequence (Q9NUP9 88-185, limits assumed, looked up): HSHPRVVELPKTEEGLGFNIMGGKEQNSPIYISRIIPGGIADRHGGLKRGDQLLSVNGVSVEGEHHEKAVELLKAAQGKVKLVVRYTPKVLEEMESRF
# ARHGAP21, Q5T5U3 = target: T11, ARHGAP21, Q5T5U3
# T11 sequence (Q5T5U3 45-169, limits assumed, looked up): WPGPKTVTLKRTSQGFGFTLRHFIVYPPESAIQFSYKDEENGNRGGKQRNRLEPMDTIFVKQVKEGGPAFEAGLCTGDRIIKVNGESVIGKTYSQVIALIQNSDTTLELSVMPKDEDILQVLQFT
# IL16_4, Q14005 = target: IL16_4, Q14005
# DLG1_3, Q12959 = target: DLG1_3, Q12959
# Inadl_6, Q8NI35 = target: Inadl_6, Q8NI35
# LAP2, Q96RT1 = target: LAP2, Q96RT1
# SNTB1, Q13884 = target: T12, SNTB1, Q13884
# T12 sequence (Q13884 107-205, limits assumed, looked up): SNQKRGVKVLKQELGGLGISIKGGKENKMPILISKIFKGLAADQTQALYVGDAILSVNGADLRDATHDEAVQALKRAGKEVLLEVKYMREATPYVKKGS
# Inadl_3, Q8NI35 = target: Inadl_3, Q8NI35
# Sequence of Inadl_3, Q8NI35 (Q8NI35 359-469): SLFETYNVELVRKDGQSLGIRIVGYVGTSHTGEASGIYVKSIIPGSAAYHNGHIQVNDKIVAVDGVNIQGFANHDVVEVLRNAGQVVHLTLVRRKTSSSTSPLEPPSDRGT
# Sequence of Inadl_6, Q8NI35 (Q8NI35 1058-1167): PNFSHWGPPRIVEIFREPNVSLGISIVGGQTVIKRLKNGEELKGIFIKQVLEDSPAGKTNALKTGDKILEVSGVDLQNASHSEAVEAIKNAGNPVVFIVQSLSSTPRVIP
# Sequence of LNX1_2, Q8TBB1 (Q8TBB1 371-470): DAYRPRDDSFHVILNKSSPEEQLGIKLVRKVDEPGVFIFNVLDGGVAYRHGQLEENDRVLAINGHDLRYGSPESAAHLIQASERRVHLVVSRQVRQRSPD
# Sequence of DLG1_3, Q12959 (Q12959 457-571): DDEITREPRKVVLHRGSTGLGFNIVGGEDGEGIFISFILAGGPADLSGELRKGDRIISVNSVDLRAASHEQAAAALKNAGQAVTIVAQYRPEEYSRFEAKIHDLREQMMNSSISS
# Sequence of MAGI2_4, Q86UL8 (Q86UL8 772-865): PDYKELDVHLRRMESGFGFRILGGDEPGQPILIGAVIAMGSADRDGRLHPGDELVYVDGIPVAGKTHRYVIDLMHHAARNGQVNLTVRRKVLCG
# Sequence of SCRIB_2, Q14160 (Q14160 857-960): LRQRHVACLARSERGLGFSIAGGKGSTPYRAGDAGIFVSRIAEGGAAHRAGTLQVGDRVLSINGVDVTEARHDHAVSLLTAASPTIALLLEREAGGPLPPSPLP
# Sequence of LAP2, Q96RT1 (Q96RT1 other isoform, or with tags, fused parts or gaps): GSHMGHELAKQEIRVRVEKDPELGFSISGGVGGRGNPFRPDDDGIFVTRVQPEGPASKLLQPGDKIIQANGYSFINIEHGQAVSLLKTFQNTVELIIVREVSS
# Sequence of LNX1_3, Q8TBB1 (Q8TBB1 500-596): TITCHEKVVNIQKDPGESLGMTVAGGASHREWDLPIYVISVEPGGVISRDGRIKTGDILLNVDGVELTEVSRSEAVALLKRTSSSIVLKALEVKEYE
# Sequence of TJP1_3, Q07157 (Q07157 416-512): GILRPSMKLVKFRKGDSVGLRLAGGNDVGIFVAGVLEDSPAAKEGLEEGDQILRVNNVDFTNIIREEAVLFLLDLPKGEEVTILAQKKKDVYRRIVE
# Sequence of DLG4_3, P78352 (P78352 306-403): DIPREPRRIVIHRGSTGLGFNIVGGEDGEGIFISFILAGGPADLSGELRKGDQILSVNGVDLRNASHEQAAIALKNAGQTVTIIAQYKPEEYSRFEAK
# Sequence of DLG1_2, Q12959 (Q12959 314-412): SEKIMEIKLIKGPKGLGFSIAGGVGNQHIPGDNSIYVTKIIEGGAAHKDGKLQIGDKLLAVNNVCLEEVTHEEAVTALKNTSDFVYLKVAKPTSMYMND
# Sequence of FRMPD2_1, Q68DX3 (Q68DX3 770-861): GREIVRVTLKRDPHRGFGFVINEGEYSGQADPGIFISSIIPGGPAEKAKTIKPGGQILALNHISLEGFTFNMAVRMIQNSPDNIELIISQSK
# Sequence of IL16_4, Q14005 (Q14005 1229-1329): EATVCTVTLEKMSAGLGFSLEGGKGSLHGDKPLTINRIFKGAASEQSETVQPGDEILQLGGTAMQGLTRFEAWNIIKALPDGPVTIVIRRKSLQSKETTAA
Binder,"pKd (LNX1_2, Q8TBB1)","pKd (PDZRN3_1, Q9UPQ7)","pKd (MAGI2_4, Q86UL8)","pKd (SNTG2, Q9NY99)","pKd (APBA2_2, Q99767)","pKd (FRMPD2_1, Q68DX3)","pKd (LNX2_3, Q8N448)","pKd (LIN7B, Q9HAP6)","pKd (DLG4_3, P78352)","pKd (HTRA4, P83105)","pKd (SCRIB_2, Q14160)","pKd (GRIP1_4, Q9Y3R0)","pKd (TJP1_3, Q07157)","pKd (LNX1_3, Q8TBB1)","pKd (NHERF3_4, Q5T2W1)","pKd (DLG1_2, Q12959)","pKd (PDZD2_2, O15018)","pKd (LIN7C, Q9NUP9)","pKd (ARHGAP21, Q5T5U3)","pKd (IL16_4, Q14005)",other results
"SGSLKLMTTV [DACT1, Q9NYF0]",3.84,below the threshold,4.92,3.66,below the threshold,below the threshold,below the threshold,below the threshold,4.26,4.26,3.69,below the threshold,below the threshold,below the threshold,below the threshold,5.54,3.92,below the threshold,below the threshold,below the threshold,"pKd (DLG1_3, Q12959): 3.55; pKd (Inadl_6, Q8NI35): below the threshold; pKd (LAP2, Q96RT1): below the threshold; pKd (SNTB1, Q13884): 3.64; pKd (Inadl_3, Q8NI35): below the threshold"
"QGPVETESVV [SLC45A4, Q5BKX6]",below the threshold,3.72,3.76,4.34,below the threshold,below the threshold,below the threshold,below the threshold,below the threshold,3.97,3.67,below the threshold,below the threshold,below the threshold,below the threshold,4.69,5.27,below the threshold,4.14,below the threshold,"pKd (DLG1_3, Q12959): below the threshold; pKd (Inadl_6, Q8NI35): 3.57; pKd (LAP2, Q96RT1): 3.66; pKd (SNTB1, Q13884): 4.94; pKd (Inadl_3, Q8NI35): 3.96"
"TKGPRGPTRV [SAPCD1, Q5SSQ6]",below the threshold,4.03,below the threshold,4.18,below the threshold,4.35,below the threshold,below the threshold,4.59,3.96,below the threshold,below the threshold,below the threshold,below the threshold,below the threshold,4.68,3.88,below the threshold,below the threshold,below the threshold,"pKd (DLG1_3, Q12959): 4.31; pKd (Inadl_6, Q8NI35): below the threshold; pKd (LAP2, Q96RT1): 3.72; pKd (SNTB1, Q13884): 4.46; pKd (Inadl_3, Q8NI35): below the threshold"
"SNAGNTATKA [NOSTRIN, Q8IVI9]",below the threshold,below the threshold,below the threshold,below the threshold,below the threshold,below the threshold,below the threshold,3.74,3.5,below the threshold,below the threshold,below the threshold,below the threshold,below the threshold,below the threshold,below the threshold,below the threshold,below the threshold,below the threshold,below the threshold,"pKd (DLG1_3, Q12959): below the threshold; pKd (Inadl_6, Q8NI35): below the threshold; pKd (LAP2, Q96RT1): below the threshold; pKd (SNTB1, Q13884): below the threshold; pKd (Inadl_3, Q8NI35): below the threshold"

# Source: publication PMC9482650, “Quantitative fragmentomics allow affinity mapping of interactomes” (Nature Communications, 2022)
